Reference: KR20150000795A

Target: c-Met on MKN45 gastric cancer cells / Caki-1 kidney cancer cells (human) (UniProt P08581)
Assay: cell-based or functional assay

UniProt P08581, sequence (P08581 25-1390): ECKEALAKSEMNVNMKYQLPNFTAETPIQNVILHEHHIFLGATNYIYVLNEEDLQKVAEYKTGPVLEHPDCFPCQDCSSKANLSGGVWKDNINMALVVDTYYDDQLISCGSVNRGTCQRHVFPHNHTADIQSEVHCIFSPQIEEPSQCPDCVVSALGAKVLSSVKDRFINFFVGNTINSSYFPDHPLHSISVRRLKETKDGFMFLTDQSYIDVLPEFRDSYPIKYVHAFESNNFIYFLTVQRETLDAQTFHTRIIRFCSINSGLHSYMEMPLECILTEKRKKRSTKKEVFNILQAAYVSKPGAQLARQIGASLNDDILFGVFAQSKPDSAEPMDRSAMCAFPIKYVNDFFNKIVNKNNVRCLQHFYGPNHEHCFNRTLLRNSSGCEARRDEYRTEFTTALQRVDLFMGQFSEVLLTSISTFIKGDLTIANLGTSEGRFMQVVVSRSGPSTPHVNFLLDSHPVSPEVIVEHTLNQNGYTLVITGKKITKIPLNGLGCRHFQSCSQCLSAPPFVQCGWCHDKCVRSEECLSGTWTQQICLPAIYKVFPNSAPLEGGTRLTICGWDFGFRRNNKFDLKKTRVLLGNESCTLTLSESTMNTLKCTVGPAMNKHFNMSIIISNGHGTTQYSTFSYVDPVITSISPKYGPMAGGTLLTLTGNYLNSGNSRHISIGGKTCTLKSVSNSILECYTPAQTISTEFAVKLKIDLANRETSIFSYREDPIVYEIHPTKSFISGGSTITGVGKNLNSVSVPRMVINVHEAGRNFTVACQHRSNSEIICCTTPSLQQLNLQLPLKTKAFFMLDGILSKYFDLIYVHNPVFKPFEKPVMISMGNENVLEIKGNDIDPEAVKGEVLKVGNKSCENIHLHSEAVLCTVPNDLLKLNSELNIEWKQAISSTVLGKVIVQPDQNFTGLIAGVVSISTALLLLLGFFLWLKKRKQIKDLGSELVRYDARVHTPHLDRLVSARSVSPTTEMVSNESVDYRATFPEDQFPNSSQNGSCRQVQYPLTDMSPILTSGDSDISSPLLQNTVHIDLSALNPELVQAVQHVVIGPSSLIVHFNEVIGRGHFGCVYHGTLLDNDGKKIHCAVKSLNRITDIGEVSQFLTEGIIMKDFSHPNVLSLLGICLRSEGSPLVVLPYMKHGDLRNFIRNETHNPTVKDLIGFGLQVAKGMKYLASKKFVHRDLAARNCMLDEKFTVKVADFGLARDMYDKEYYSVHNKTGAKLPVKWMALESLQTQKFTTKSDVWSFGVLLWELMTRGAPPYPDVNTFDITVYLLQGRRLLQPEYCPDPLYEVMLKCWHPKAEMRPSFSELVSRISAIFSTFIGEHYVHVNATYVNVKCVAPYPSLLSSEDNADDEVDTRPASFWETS

**Q.** How did the Akt phosphorylation (Ser473), phospho-AKT1 sandwich ELISA, Caki-1 cells (reference set to 100%) turn out when 5D5 (antibody) was run?
**A.** 100%
